± gives the standard deviation of the averaged measurements.
What follows are sequences tested on Saccharomyces cerevisiae (assay: protein stability index of tFT-peptide fusion (C-terminal peptide) (PSI (0-1 scale)); higher = more stable (slower turnover)). Conditions: genetic background: wild type; temperature: 30 C.
Experimental: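 Multiplexed protein stability (MPS) profiling in S. cerevisiae. Random 12-aa peptides (tFT-X12 library) are fused to the C-terminus of a sfGFP-mCherry tandem fluorescent timer, after mCherry and a GGGS linker. Cells are FACS-sorted into 8 mCherry/sfGFP bins and deep-sequenced. The protein stability index (PSI) is the read-weighted bin average, scaled from 0 (unstable) to 1 (stable). Only peptides with >10 reads are reported; cells were grown at 30 °C in SC-His with glucose.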
ERKQRKREQRDR showed a protein stability index of 0.6609 ± 0.0038.
In the case of GRRWGGERVREG, the protein stability index is reported as 0.66 ± 0.015.
In the case of VGVLRTSRASPH, the protein stability index is reported as 0.646 ± 0.031.
Work on QIRRPRRFFYVS yielded a protein stability index of 0.642 ± 0.17.
Sequence IKTLLDYESMRS has a protein stability index of 0.768 ± 0.034.
For PLRPPPPPLAPP, the protein stability index was 0.697 ± 0.035.
For EGEVAGRWCGRG, the protein stability index was 0.69 ± 0.013.
VGGRRCVCVWWL was tested, and the protein stability index was 0.674 ± 0.016.
For RGCSGGVVDWIG, the protein stability index was 0.679 ± 0.017.
Work on PPPPPPTPSLRL yielded a protein stability index of 0.72 ± 0.021.
Sequence SNKDLELVSTVC has a protein stability index of 0.658 ± 0.002.
KKYETNENNQKK was tested, and the protein stability index was 0.686 ± 0.027.
For RCGRGVAAEWLS, the protein stability index was 0.668 ± 0.06.
LFFLLPSSPIGF was tested, and the protein stability index was 0.705 ± 0.011.
With PASGHLPPPLSP the protein stability index was 0.641 ± 0.064.
In the case of GCLFSVLQSPSV, the protein stability index is reported as 0.721 ± 0.02.
With FKSVPTLPHPSP the protein stability index was 0.6701 ± 0.0045.
With LLFPPVCRPCLS the protein stability index was 0.605 ± 0.11.
KNIEKKKQKDTQ gave a protein stability index of 0.645 ± 0.058.
KKMNVKNNKSKI was tested, and the protein stability index was 0.777 ± 0.17.
LPPPPPPPASPD was tested, and the protein stability index was 0.699 ± 0.058.
Work on SIIRYNKSATIT yielded a protein stability index of 0.667 ± 0.047.
GLLTFPPNRSGG showed a protein stability index of 0.67 ± 0.05.
VKRVYQRFHVKK showed a protein stability index of 0.666 ± 0.04.
TLEGRQKEMGIA gave a protein stability index of 0.691 ± 0.037.
QVRTWGGCWGRG showed a protein stability index of 0.674 ± 0.0083.
For SPFLTPPPPRPA, the protein stability index was 0.682 ± 0.024.
GARRVVFSSVLQ showed a protein stability index of 0.774 ± 0.13.
PPPLFPALHHPP gave a protein stability index of 0.639 ± 0.051.
In the case of TVYRQRRDAPTR, the protein stability index is reported as 0.727 ± 0.022.
Work on PPCCFPRSPSPS yielded a protein stability index of 0.714 ± 0.049.
Work on WGYGRGRVWEIS yielded a protein stability index of 0.6137 ± 0.0011.
RFPPFSFAPCLI gave a protein stability index of 0.712 ± 0.035.
For GRLRNVSLLSFC, the protein stability index was 0.662 ± 0.011.
In the case of VVSSFVCLLRRG, the protein stability index is reported as 0.654 ± 0.055.
SLLRPPHASFSS was tested, and the protein stability index was 0.688 ± 0.044.
RKKKSNLMDDDD gave a protein stability index of 0.696 ± 0.031.
RCAWSEVFEGCG was tested, and the protein stability index was 0.71 ± 0.021.
Work on HHIAYTALSVWS yielded a protein stability index of 0.663 ± 0.011.
AGHFITRTGGPT was tested, and the protein stability index was 0.7 ± 0.07.
Sequence KKERSTKTNRNV has a protein stability index of 0.635 ± 0.0072.
In the case of DIKKSTKGQNQQ, the protein stability index is reported as 0.602 ± 0.025.
Sequence PPPSTPLSPSSP has a protein stability index of 0.72 ± 0.11.
With PVAGTLDVHYRV the protein stability index was 0.7098 ± 0.0063.
With LWCPLPHGVLLL the protein stability index was 0.608 ± 0.053.
FLSGPCLLSFAS was tested, and the protein stability index was 0.679 ± 0.12.
With FMRASPSACTCL the protein stability index was 0.668 ± 0.094.
Sequence IHVKKNQACSLF has a protein stability index of 0.646 ± 0.024.
PPAPPAPPPSVG gave a protein stability index of 0.708 ± 0.03.
With TGCEVSINSCVE the protein stability index was 0.656 ± 0.046.
GGVVVRGRASAR was tested, and the protein stability index was 0.717 ± 0.02.
With EWEKPEDLHKPA the protein stability index was 0.659 ± 0.058.
ADKIPHSDNRSR showed a protein stability index of 0.697 ± 0.01.
With EFKGRHEETTKS the protein stability index was 0.72 ± 0.08.
VIGSSGRVGGLG gave a protein stability index of 0.6913 ± 0.0028.
In the case of GSFFFFLAPSYF, the protein stability index is reported as 0.636 ± 0.014.
AAPPAYGPPPPP gave a protein stability index of 0.6974 ± 0.0025.
With RGGASGPFVWAG the protein stability index was 0.71 ± 0.057.
For KKKETEKPRKQK, the protein stability index was 0.677 ± 0.054.
KREKENIAKSSV showed a protein stability index of 0.718 ± 0.078.
With GKRKEAVLRMMI the protein stability index was 0.6213 ± 0.0017.
Sequence GVCSRAVGSGSF has a protein stability index of 0.715 ± 0.067.
Work on LSPPSSPPPTPS yielded a protein stability index of 0.714 ± 0.076.
With KKIKKRQSKENK the protein stability index was 0.704 ± 0.015.
With APPTPPHPRPSS the protein stability index was 0.7269 ± 0.0036.
KTNNYPDNNPPG was tested, and the protein stability index was 0.611 ± 0.016.
WVGLGRVWVKLG gave a protein stability index of 0.697 ± 0.044.
In the case of LHRFPMISLLGP, the protein stability index is reported as 0.699 ± 0.018.
ARMPQVSEIALC showed a protein stability index of 0.6612 ± 0.00024.
In the case of KSDSDNCQALTY, the protein stability index is reported as 0.679 ± 0.067.
With FRFVFFFRSGLV the protein stability index was 0.595 ± 0.063.
Work on CGVGEGGLLGWL yielded a protein stability index of 0.745 ± 0.072.
In the case of DGGKRKQDSQKK, the protein stability index is reported as 0.683 ± 0.034.
In the case of SKKNKPAQRRPH, the protein stability index is reported as 0.729 ± 0.026.
For KIKRTNKNIKKS, the protein stability index was 0.672 ± 0.017.
In the case of PGTEVSDTLEVL, the protein stability index is reported as 0.6894 ± 0.0045.
Work on RGVETGRGREKE yielded a protein stability index of 0.643 ± 0.046.
KKEEKKRRKPQR gave a protein stability index of 0.626 ± 0.039.
DACWWVDDGGVV gave a protein stability index of 0.719 ± 0.051.
Sequence TRGPKYTMVVKR has a protein stability index of 0.672 ± 0.017.
For DFVSQFSFQFGC, the protein stability index was 0.713 ± 0.066.
For RAIGSRIIIWGL, the protein stability index was 0.564 ± 0.011.
LSSCPRIMVPIT gave a protein stability index of 0.777 ± 0.11.
Work on DLVGSWMCGPDL yielded a protein stability index of 0.691 ± 0.028.
With PLPPPRFPPPRL the protein stability index was 0.68 ± 0.12.
For YNYADVCTNESP, the protein stability index was 0.7 ± 0.022.
KIDQLDHVGLYS was tested, and the protein stability index was 0.674 ± 0.015.
FTKAVQVFLASV was tested, and the protein stability index was 0.635 ± 0.057.
Sequence YGGGVWRGVALG has a protein stability index of 0.6914 ± 0.0052.
GGVGWWVGVVWG gave a protein stability index of 0.624 ± 0.071.
In the case of EKKHNKKEVIKK, the protein stability index is reported as 0.699 ± 0.009.
VWVCGLGGGVLG showed a protein stability index of 0.777 ± 0.021.
RFGRGAGGGLGG gave a protein stability index of 0.6763 ± 0.0013.
For EGDGVGCWWELW, the protein stability index was 0.683 ± 0.033.
PATKQFLLRGGR gave a protein stability index of 0.713 ± 0.0079.
Sequence RPFPLPPRPSPP has a protein stability index of 0.673 ± 0.13.
With KKKHKNNIQKKK the protein stability index was 0.6129 ± 0.0017.
LCLTLPSDSSAP was tested, and the protein stability index was 0.841 ± 0.073.
In the case of SSSVLPESFSPS, the protein stability index is reported as 0.687 ± 0.036.
YCHVPVVGSWIP showed a protein stability index of 0.735 ± 0.067.
With GGVVVGRGVCVF the protein stability index was 0.626 ± 0.032.
Sequence KETSERKNKETG has a protein stability index of 0.624 ± 0.041.
Sequence LGCSVGESVGAG has a protein stability index of 0.68 ± 0.03.
In the case of KKKIKKKSIKKT, the protein stability index is reported as 0.7074 ± 0.0044.
Work on VGWRGTGCGRVW yielded a protein stability index of 0.688 ± 0.074.
For PRPSFRPPPPLP, the protein stability index was 0.722 ± 0.011.
For AGFCRVFSYDFV, the protein stability index was 0.708 ± 0.04.
In the case of EVTDSVKTEPAT, the protein stability index is reported as 0.6463 ± 0.0043.
PPLHSSPPAVPP was tested, and the protein stability index was 0.699 ± 0.038.
With KKKKNKKIKINE the protein stability index was 0.6874 ± 0.0033.
For NGILRGATYQDV, the protein stability index was 0.77 ± 0.067.
Work on KGRLRVGAAGCD yielded a protein stability index of 0.633 ± 0.011.
Sequence KKGRKKEGKREK has a protein stability index of 0.621 ± 0.06.
SSEECYDTKGEL showed a protein stability index of 0.674 ± 0.027.
CGWFSVGLMVGG was tested, and the protein stability index was 0.485 ± 0.057.
VGVATRGVGGGM showed a protein stability index of 0.669 ± 0.032.
For PPPLPPPPPPPP, the protein stability index was 0.673 ± 0.026.
For DSSRANRCISDR, the protein stability index was 0.654 ± 0.046.
Work on LSVLNTQFGFGS yielded a protein stability index of 0.6751 ± 0.0054.
In the case of PPPVPPLGPSRA, the protein stability index is reported as 0.693 ± 0.044.
In the case of CFVDHCPIAHIY, the protein stability index is reported as 0.608 ± 0.022.
AGMRRRGGAGGW showed a protein stability index of 0.684 ± 0.052.
With GPSFVVTVGNGG the protein stability index was 0.686 ± 0.02.
With SPSRHPSPPKPP the protein stability index was 0.607 ± 0.021.
GGGLRGVGGLGR gave a protein stability index of 0.602 ± 0.044.
Work on VICSIRGYNRLR yielded a protein stability index of 0.711 ± 0.038.
YRPLEQLLSLSH gave a protein stability index of 0.651 ± 0.08.
Sequence ASSRQCSVEART has a protein stability index of 0.695 ± 0.0082.
With GEYEHHKNKKRR the protein stability index was 0.7 ± 0.075.
Sequence PPLHPPPPAFVF has a protein stability index of 0.64175 ± 0.00037.
Sequence KKEPEKEQQNKE has a protein stability index of 0.746 ± 0.097.
DMAVYLVSVSRV gave a protein stability index of 0.609 ± 0.053.
VYGRRNVRLNIV was tested, and the protein stability index was 0.582 ± 0.068.
PVSPPLSLASPS showed a protein stability index of 0.706 ± 0.047.
In the case of VGTRVGCEAGVV, the protein stability index is reported as 0.637 ± 0.095.
LLLVLGLSLVGL gave a protein stability index of 0.564 ± 0.035.
RPVRLLPCVCHF showed a protein stability index of 0.679 ± 0.017.
With VEDGGSREAGEA the protein stability index was 0.627 ± 0.0073.
Sequence EKNKKDKNIIIG has a protein stability index of 0.681 ± 0.04.
Sequence RVGGVVRGERAR has a protein stability index of 0.671 ± 0.01.
In the case of PPLPPPTPLQCL, the protein stability index is reported as 0.696 ± 0.027.
Sequence DLSAGKWSRSSD has a protein stability index of 0.689 ± 0.023.
In the case of LCWQALSLGVMC, the protein stability index is reported as 0.526 ± 0.023.
For PLAMRVALFSPP, the protein stability index was 0.651 ± 0.0089.
In the case of PAPTPAPNPNPH, the protein stability index is reported as 0.74 ± 0.11.
EGHTRLPSPSPS showed a protein stability index of 0.677 ± 0.009.

— the supplement of paper PMC10724198
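Also: PSI is a weighted mean of sequencing reads over stability bins, variants kept only with over 10 reads, mCherry proximal and sfGFP distal, peptide attached via GGGS linker.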
